For assay [1], the target named is HLA-A*69:01. The assay can be described thus: IEDB peptide-MHC binding, purified MHC/direct/fluorescence; filed as Kd, often an IC50 or EC50 that approximates it; ≥ and ≤ were set here for values at or beyond the usual limits of such assays. To be noted: source organism: Burkholderia mallei.
In assay [2] the target is HLA-A*02:01. Described as above.
In assay [3] the target is HLA-A*01:01. The assay can be described thus: IEDB peptide-MHC binding, purified MHC/competitive/radioactivity; filed as Kd, often an IC50 or EC50 that approximates it; ≥ and ≤ were set here for values at or beyond the usual limits of such assays.
Assay [4] concerns the target HLA-A*02:02. The description is as above.
Assay [5] deals with HLA-A*02:06. The description is as above.
Assay [6] deals with HLA-A*02:03. The description is as above.
The target in assay [7] is HLA-A*03:01. The assay can be described thus: IEDB peptide-MHC binding, purified MHC/direct/fluorescence; filed as Kd, often an IC50 or EC50 that approximates it; ≥ and ≤ were set here for values at or beyond the usual limits of such assays. To be noted: source organism: Orthohantavirus hantanense.
The target in assay [8] is HLA-A*11:01. Described as above. To be noted: source organism: Orthohantavirus hantanense.
The target of assay [9] is HLA-B*07:02. The assay is described as above. To be noted: source organism: Human immunodeficiency virus 1.
In assay [10] the target is HLA-B*15:01. Described as above. As to conditions: source organism: Mammarenavirus juninense.
The mark [11] stands for this setting: source organism: Vaccinia virus WR.
The mark [12] stands for this setting: source organism: Dengue virus 4 Philippines/H241/1956.
The mark [13] stands for this setting: source organism: SARS coronavirus Tor2.
The mark [14] stands for this setting: source organism: Dengue virus 1 Brazil/97-11/1997.

For DAAAPLPPV, the Kd in assay [1] was 0.8 nM; in assay [2] (source organism: Burkholderia mallei) it was at least 20000 nM.

Take VTTWEDVPYL: in assay [3] (source organism: Dengue virus 3 Singapore/8120/1995), the Kd was 10200 nM.

For the sequence YMSNLFDIPL, the Kd stood at 19.2 nM in [4] (setting [11]), 127 nM in assay [5] (setting [11]) and 10.2 nM in assay [6] (setting [11]).

LIGKEEYVDY: the equilibrium dissociation constant (Kd) in assay [3] (setting [12]) came out at 7910 nM.

On to NTLIQYRQQL, for which the Kd in assay [4] (setting [11]) is 6370 nM; in [5] (setting [11]) it was at least 20900 nM; in [6] (setting [11]) it was 10100 nM.

Regarding NLTSTWVMY, the Kd in assay [3] (source organism: Dengue virus 4 Dominica/814669/1981) was 1990 nM.

FIDRGSIKI: the Kd in [4] (setting [11]) is 9720 nM; in assay [5] (setting [11]), 4030 nM; in assay [6] (setting [11]), 12200 nM.

As to SMKGENVFI, the Kd in assay [4] (setting [11]) was 5.48 nM; in [5] (setting [11]), 13700 nM; in assay [6] (setting [11]), 18.9 nM.

Take ITGNKVKTEL: the Kd in assay [4] (setting [11]) was at least 70000 nM; in assay [5] (setting [11]), at least 69800 nM; in assay [6] (setting [11]), at least 70400 nM.

Take MAEFEDQLV: the results for the Kd in assay [4] (setting [11]), in [5] (setting [11]) and in [6] (setting [11]) were 165 nM, 5510 nM and 641 nM, respectively.

For HINDQKFDDV, the Kd was 5860 nM in [4] (setting [11]), 1190 nM in assay [5] (setting [11]) and 1160 nM in [6] (setting [11]).

On to IVSRSSRGV, for which the Kd came out at 264 nM in assay [4] (setting [11]), 476 nM in assay [5] (setting [11]) and 13200 nM in assay [6] (setting [11]).

Turning to PTWLGAAITL, the results for the Kd in assay [4] (setting [11]), in [5] (setting [11]) and in [6] (setting [11]) were 1360 nM, 1770 nM and 1010 nM, respectively.

Regarding LLFLVLIMLI, the Kd in [4] (setting [13]) came to 447 nM; in assay [5] (setting [13]), 8300 nM; in assay [6] (setting [13]), 3150 nM.

On to LIYYQNEVT, for which the Kd worked out at 14000 nM in assay [4] (setting [11]), 8510 nM in assay [5] (setting [11]) and 5210 nM in [6] (setting [11]).

For GIDTSNNIA, the figures for the Kd in assay [4] (setting [11]), in assay [5] (setting [11]) and in [6] (setting [11]) were at least 49700 nM, at least 25200 nM and at least 71400 nM, respectively.

In the case of VLEENMDVEI, the Kd in [3] (setting [14]) was at least 46500 nM.

In the case of MLYILGLFK, the Kd worked out at 102 nM in [7] and 18.6 nM in [8].

Regarding YTVEFDRDKV, the Kd stood at 82.6 nM in assay [4] (setting [11]), 22 nM in assay [5] (setting [11]) and 154 nM in [6] (setting [11]).

As for ETDDDGNYPL, the equilibrium dissociation constant (Kd) in assay [4] (setting [11]) is 3590 nM; in [5] (setting [11]), 1160 nM; in [6] (setting [11]) it was at least 28200 nM.

For the sequence GLESIEQNLT, the Kd is 7020 nM in assay [4] (setting [11]), at least 69800 nM in assay [5] (setting [11]) and at least 61300 nM in [6] (setting [11]).

With TLLIKTLSPA, the Kd in assay [4] (setting [11]) stood at 1.05 nM; in [5] (setting [11]), 0.728 nM; in [6] (setting [11]), 1.17 nM.

For the sequence YTISSESLV, the dissociation constant (Kd) worked out at 522 nM in [4] (setting [11]), 53.6 nM in assay [5] (setting [11]) and 37.6 nM in [6] (setting [11]).

For GIRCVSNLDI, the Kd in [4] (setting [11]) was at least 20100 nM; in assay [5] (setting [11]), at least 32900 nM; in assay [6] (setting [11]) it was 3870 nM.

EPIVGAETF yielded a Kd in [9] of 5640 nM.

In the case of QTGIQRTVFF, the Kd in assay [3] (setting [12]) was at least 70400 nM.

Take AAVTLNRIKI: the Kd in [4] (setting [11]) was found to be 830 nM; in assay [5] (setting [11]) it was 1920 nM; in assay [6] (setting [11]), 3490 nM.

As for RLRQDTEDI, the Kd is 230 nM in assay [4] (setting [11]), 4580 nM in assay [5] (setting [11]) and 387 nM in [6] (setting [11]).

GMHHLYREY showed a Kd in [10] of 135 nM.

Take VLTILYYGA: the values for the Kd in assay [4] (setting [11]), in assay [5] (setting [11]) and in [6] (setting [11]) were 1.32 nM, 6240 nM and 17.5 nM, respectively.

Consider LIGNEEFLDY, for which the Kd in assay [3] (source organism: Dengue virus 3 Martinique/1243/1999) was found to be 1670 nM.

Regarding RAGYSIVEL, the figures for the Kd in [4] (setting [11]), in assay [5] (setting [11]) and in [6] (setting [11]) were 4940 nM, 5070 nM and 5390 nM, respectively.

As to VIPDELIDVL, the dissociation constant (Kd) in assay [4] (setting [11]) amounted to 2490 nM; in assay [5] (setting [11]), 298 nM; in assay [6] (setting [11]), 4590 nM.

Consider LLNETAKVI, for which the Kd in assay [4] (setting [11]) amounted to 319 nM; in [5] (setting [11]) it was 15400 nM; in assay [6] (setting [11]) it was 71.4 nM.

As for LTSRETALM, the Kd in assay [3] (setting [12]) turned out to be 1800 nM.

On to GLDPTGVAV, for which the Kd in assay [2] (source organism: Mycobacterium tuberculosis) amounted to 17.4 nM.

Take ETNIGCAVNT: the Kd was at least 70000 nM in assay [4] (setting [11]), at least 69800 nM in assay [5] (setting [11]) and at least 37000 nM in assay [6] (setting [11]).

WTTLLSLTF: the Kd in assay [3] (setting [14]) turned out to be 11200 nM.

In the case of ITDYQGKTV, the Kd in assay [3] (setting [12]) is at least 33900 nM.

One may read the Kd as the concentration at which binding is half-saturated.

(Values after the Immune Epitope Database (IEDB).)
